Biological target: the molecule itself
Assay: SEC-MALS; Superdex 200 10/300, 20 mM Tris-HCl pH 8.0, 150 mM NaCl, 0.4 mL/min, 25°C; BSA as the reference

B1: full-length mouse IRG1 (immune responsive gene 1) (enzyme, Mus musculus (mouse), UniProt P54987 1-488, looked up)
chain: MMLKSVTESFAGMIHGLKVNHLTDGIIRRSKRMILDSLGVGFLGTGTEVFHKVTQYSKIYSSNTSSTVWGRPDFRLPPTYAAFVNGVAVHSMDFDDTWHPATHPSGAVLPVLTALSEALPQIPKFSGLDLLLAFNVGIEVQGRLMHFSKEAKDIPKRFHPPSVVGTLGSAAAASKFLGLSLTKCREALAIAVSHAGAPIANAATQTKPLHIGNAAKHGMEATFLAMLGLQGNKQILDLGSGFGAFYANYSPEDLPSLDSHIWLLDQQDVAFKSFPAHLATHWVADAAAAVRKHLVTPERALFPADHIERIVLRIPDVQYVNRPFPDSEHEARHSFQYVACASLLDGSITVPSFHSQQVNRPQVRELLKKVKLEHPPDNPPSFDTLYCEISITLKDGTTFTERSDTFYGHWRKPLSQEDLRNKFRANASKMLCRDTVESLITVVEKLEDLEDCSVLTRLLKGPSVQDEASKLSSMSSFDHTTLPRFTNI
notes: immune responsive gene 1 (IRG1, cis-aconitate decarboxylase), Mus musculus, NCBI NP_032418.1, full length, residues 1 to 488, cloned into pET21a (NdeI/XhoI); In the crystal, molecule A was modelled from residues 5 to 463 and molecule B from residues 4 to 460; the rest was not traceable; also called cis-aconitate decarboxylase; CAD; source: E. coli BL21 (DE3), purified (Ni-NTA, SEC); not shown: …
For B1, the “stoichiometry N” value was 2.
